Test results taken from patent publication US20100260717, “METHODS OF […] A […] FAMILY VIRAL INFECTION, COMPOSITIONS FOR […] A […] FAMILY VIRAL INFECTION, AND […] ASSAYS FOR […] COMPOSITIONS FOR […] A […] FAMILY VIRAL INFECTION” (published 2010).

Biological target: HuR (ELAVL1) (Homo sapiens, UniProt Q15717 Q15717:1-326)
Test: MITOMI; not inhibited by clemizole 0.1 mM, inhibited by ATA
Conditions: tags: C-terminal V5-6xHis; bodipy-Lys labelled; wheat germ extract; ORFeome clone (Open Biosystems); label: Cy3
Method: Binding of HuR to the consensus 4A RNA sequence was tested in the presence of the inhibitory molecules shown to inhibit RNA binding by NS4B.

Chain of HuR (ELAVL1) (Q15717 whole entry, one chain of several): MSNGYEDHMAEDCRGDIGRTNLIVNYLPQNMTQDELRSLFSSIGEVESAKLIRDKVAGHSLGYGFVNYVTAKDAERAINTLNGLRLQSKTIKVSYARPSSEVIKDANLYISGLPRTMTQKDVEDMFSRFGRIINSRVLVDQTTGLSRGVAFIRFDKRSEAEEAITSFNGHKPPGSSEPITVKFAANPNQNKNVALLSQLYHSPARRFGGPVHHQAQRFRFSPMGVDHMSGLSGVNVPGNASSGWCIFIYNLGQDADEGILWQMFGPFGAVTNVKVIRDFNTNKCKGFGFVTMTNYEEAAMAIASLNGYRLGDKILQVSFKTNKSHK

B1: 4A (ssRNA)
RNA: AUUUAUUUAUUUAUUUA
binding result: binds
